From article PMC4022651, “Substitutional Analysis of the C-Terminal Domain of AbrB Revealed Its Essential Role in DNA-Binding Activity”
One block for each molecule: values may come before it.

Legend:
AbrB Q91A (B. subtilis) [1] = experiment: SEC; analytical gel filtration (FPLC) on Superdex 75 5/150 GL; running buffer condition II: 50 mM HEPES pH 7.5, 300 mM NaCl, 2 mM β-mercaptoethanol with 10% glycerol; 60 µl (100 µg) protein applied; 0.2 ml/min; polymeric forms as % of the areas under the curve of all protein peaks
AbrB Q91A (B. subtilis) [2] = experiment: SEC; analytical gel filtration (FPLC) on Superdex 75 5/150 GL; running buffer condition I: 50 mM HEPES pH 7.5, 300 mM NaCl, 2 mM β-mercaptoethanol, no glycerol; 100 µl protein applied; 0.2 ml/min; polymeric forms as % of the areas under the curve of all protein peaks
[3] = system: AbrB R15A (Bacillus subtilis 168); experiment: EMSA; conditions: apparent KD', from plot against AbrB tetramer; 20 mM Tris-HCl pH 8, 100 mM KCl, 5 mM MgCl2, 1 mM DTT, 10% glycerol, 0.1 mg/ml poly(dI-dC), room temperature, 20 min; 1.14 nM phyC or 0.95 nM sinIR DNA
AbrB wt [4] = molecular target: T1, AbrB wt (Bacillus subtilis 168, UniProt P08874 3-96); experiment: EMSA; conditions: apparent KD', from plot against AbrB tetramer; 20 mM Tris-HCl pH 8, 100 mM KCl, 5 mM MgCl2, 1 mM DTT, 10% glycerol, 0.1 mg/ml poly(dI-dC), room temperature, 20 min; 1.14 nM phyC or 0.95 nM sinIR DNA
T1 sequence: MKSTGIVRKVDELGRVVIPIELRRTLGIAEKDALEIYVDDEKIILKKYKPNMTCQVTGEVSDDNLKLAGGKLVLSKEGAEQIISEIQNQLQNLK

AbrB wt [5] = molecular target: T1, AbrB wt; experiment: EMSA; shift above 0.1 uM, no super shift; 20 mM Tris-HCl pH 8, 100 mM KCl, 5 mM MgCl2, 1 mM DTT, 10% glycerol, 0.1 mg/ml poly(dI-dC), room temperature, 20 min; 1.14 nM phyC or 0.95 nM sinIR DNA; conditions: protein: recombinant; tags: His6; chain copies: 4; label: 5'-32P; blunt

- % of the protein (AUC) in the form with n 4.1 (AbrB Q91A (B. subtilis) [1]): > 95%
- stoichiometry N (AbrB Q91A (B. subtilis) [1]): 4.1
- % of the protein (AUC) in the form with n 4.7 (AbrB Q91A (B. subtilis) [2]): 85%
- % of the protein (AUC) in the form with n 8.2 (AbrB Q91A (B. subtilis) [2]): 15%
Molecule: AbrB Q91A (natural protein)

Molecule: phyC promoter 440 bp
- Kd [3]: 3.4 µM
- Kd (AbrB wt [4]): 0.66 µM

B1: sinIR P1 AbrB site 36 bp (dsDNA)
DNA 1: GTGATTTAATGGCAAATGACTTCCAGAGACTAATGA
DNA 2: TCATTAGTCTCTGGAAGTCATTTGCCATTAAATCAC
- binding result (AbrB wt [5]): binds
